Where a chain is given by its changes, count along the chain named.
B1: NRC3_wobSeed2_DR0_C4A_o1 (dsDNA)
DNA 1: GCCATAGTTGGTCAAGGTCACACACGCTATAGGTACGCGATTGACAGCGTAGAATGAAGG
DNA 2: CCTTCATTCTACGCTGTCAATCGCGTACCTATAGCGTGTGTGACCTTGACCAACTATGGC
B2: NRC3_wobSeed2_DR0_A22G_o1 (dsDNA)
DNA 1: B1 DNA 1 with A4C, A22G
DNA 2: B1 DNA 2 with T39C, T57G
B3: NRC3_wobSeed17_DR0_A14G_o1 (dsDNA)
DNA 1: GCATATGTAGGTTGGGGTCATTCAGAAAGTAGGGAAGCGATTGACAGCGTAGAATGAAGG
DNA 2: CCTTCATTCTACGCTGTCAATCGCTTCCCTACTTTCTGAATGACCCCAACCTACATATGC
B4: NRC3_wobSeed92_DR3_A9G_o1 (dsDNA)
DNA 1: GCAGAATGGGGTTATTAAGATCAGGGAATTGCGGTCGCGATTGACAGCGTAGAATGAAGG
DNA 2: CCTTCATTCTACGCTGTCAATCGCGACCGCAATTCCCTGATCTTAATAACCCCATTCTGC
B5: NRC3_wobSeed49_DR2_C7A_o1 (dsDNA)
DNA 1: GCCAAAATAGGTCAAGAGGTCAAAGTCCGCTTCCCGGCGATTGACAGCGTAGAATGAAGG
DNA 2: CCTTCATTCTACGCTGTCAATCGCCGGGAAGCGGACTTTGACCTCTTGACCTATTTTGGC
B6: NRC3_wobSeed76_DR3_C13A_o1 (dsDNA)
DNA 1: GCCCTACTGGGCAAAAAAGGTCATTGATGCCGATAAGCGATTGACAGCGTAGAATGAAGG
DNA 2: CCTTCATTCTACGCTGTCAATCGCTTATCGGCATCAATGACCTTTTTTGCCCAGTAGGGC
B7: NRC3_wobSeed72_DR2_T13C_o1 (dsDNA)
DNA 1: GCTCGAGTAGGTCACGGGGGCATTCAGGGATGAAGAGCGATTGACAGCGTAGAATGAAGG
DNA 2: CCTTCATTCTACGCTGTCAATCGCTCTTCATCCCTGAATGCCCCCGTGACCTACTCGAGC
B8: NRC3_wobSeed72_DR2_A6T_o1 (dsDNA)
DNA 1: B7 DNA 1 with A6T, C13T
DNA 2: B7 DNA 2 with G48A, T55A
B9: NRC3_wobSeed58_DR2_C5G_o1 (dsDNA)
DNA 1: GCATGGAAAGGTCGTGAGGTGAGTATACAGAAAGGCGCGATTGACAGCGTAGAATGAAGG
DNA 2: CCTTCATTCTACGCTGTCAATCGCGCCTTTCTGTATACTCACCTCACGACCTTTCCATGC
B10: NRC3_wobSeed58_DR2_A25T_o1 (dsDNA)
DNA 1: B9 DNA 1 with G5C, A25T
DNA 2: B9 DNA 2 with T36A, C56G
B11: NRC3_wobSeed125_DR5_G17T_o1 (dsDNA)
DNA 1: GCCCTTACGGGTCACTTACAGGTTATAGCATTTGGAGCGATTGACAGCGTAGAATGAAGG
DNA 2: CCTTCATTCTACGCTGTCAATCGCTCCAAATGCTATAACCTGTAAGTGACCCGTAAGGGC
B12: NRC3_wobSeed98_DR4_C29A_o1 (dsDNA)
DNA 1: GCACTAGTTGGTCAGCTGAGGTCACACAAAATTCGGGCGATTGACAGCGTAGAATGAAGG
DNA 2: CCTTCATTCTACGCTGTCAATCGCCCGAATTTTGTGTGACCTCAGCTGACCAACTAGTGC
B13: NRC3_wobSeed98_DR4_A19G_o1 (dsDNA)
DNA 1: B12 DNA 1 with A19G, A29C
DNA 2: B12 DNA 2 with T32G, T42C
B14: NRC3_wobSeed113_DR4_T17G_o1 (dsDNA)
DNA 1: GCATATGTAGGTTAGCGGGGGTCATTCAGACTAGGCGCGATTGACAGCGTAGAATGAAGG
DNA 2: CCTTCATTCTACGCTGTCAATCGCGCCTAGTCTGAATGACCCCCGCTAACCTACATATGC
B15: NRC3_wobSeed21_DR0_A15T_o1 (dsDNA)
DNA 1: GCCGTCAAAGTTCATGGTAACGTAACAGAAAGCAGCGCGATTGACAGCGTAGAATGAAGG
DNA 2: CCTTCATTCTACGCTGTCAATCGCGCTGCTTTCTGTTACGTTACCATGAACTTTGACGGC
B16: NRC3_wobSeed124_DR5_C17A_o1 (dsDNA)
DNA 1: GCCCTACTGGGCCATTAAGAGGTCATTGATCATATGGCGATTGACAGCGTAGAATGAAGG
DNA 2: CCTTCATTCTACGCTGTCAATCGCCATATGATCAATGACCTCTTAATGGCCCAGTAGGGC
B17: NRC3_wobSeed124_DR5_T26C_o1 (dsDNA)
DNA 1: B16 DNA 1 with A17C, T26C
DNA 2: B16 DNA 2 with A35G, T44G
B18: NRC3_wobSeed124_DR5_T15C_o1 (dsDNA)
DNA 1: B16 DNA 1 with T15C, A17C
DNA 2: B16 DNA 2 with T44G, A46G
B19: NRC3_wobSeed124_DR5_T27C_o1 (dsDNA)
DNA 1: B16 DNA 1 with A17C, T27C
DNA 2: B16 DNA 2 with A34G, T44G
B20: NRC3_wobSeed50_DR2_A17G_o1 (dsDNA)
DNA 1: GCCCTAGTTGGTCAGGGGGTCACACACCGGATATGAGCGATTGACAGCGTAGAATGAAGG
DNA 2: CCTTCATTCTACGCTGTCAATCGCTCATATCCGGTGTGTGACCCCCTGACCAACTAGGGC
B21: NRC3_wobSeed50_DR2_T9G_o1 (dsDNA)
DNA 1: B20 DNA 1 with T9G, G17A
DNA 2: B20 DNA 2 with C44T, A52C
B22: NRC3_wobSeed50_DR2_C4T_o1 (dsDNA)
DNA 1: B20 DNA 1 with C4T, G17A
DNA 2: B20 DNA 2 with C44T, G57A
B23: NRC3_wobSeed93_DR3_T17A_o1 (dsDNA)
DNA 1: GCAGTCAAAGTTCATCAAGGTAACGTAAGATATGCTGCGATTGACAGCGTAGAATGAAGG
DNA 2: CCTTCATTCTACGCTGTCAATCGCAGCATATCTTACGTTACCTTGATGAACTTTGACTGC
B24: NRC3_wobSeed27_DR1_A9G_o1 (dsDNA)
DNA 1: GCACTCGGGGGACAAAGGTCAGAGCTACGCCAGTGAGCGATTGACAGCGTAGAATGAAGG
DNA 2: CCTTCATTCTACGCTGTCAATCGCTCACTGGCGTAGCTCTGACCTTTGTCCCCCGAGTGC
B25: NRC3_wobSeed27_DR1_C4G_o1 (dsDNA)
DNA 1: B24 DNA 1 with C4G, G9A
DNA 2: B24 DNA 2 with C52T, G57C
B26: NRC3_wobSeed26_DR1_C22A_o1 (dsDNA)
DNA 1: GCTCTAGTTGGTCAAAGGTCAAACACTCGAAATGCGGCGATTGACAGCGTAGAATGAAGG
DNA 2: CCTTCATTCTACGCTGTCAATCGCCGCATTTCGAGTGTTTGACCTTTGACCAACTAGAGC
B27: NRC3_wobSeed69_DR2_A21T_o1 (dsDNA)
DNA 1: GCAGTCAAAGTTCACTAGGTTACGTAAGATTCAGCTGCGATTGACAGCGTAGAATGAAGG
DNA 2: CCTTCATTCTACGCTGTCAATCGCAGCTGAATCTTACGTAACCTAGTGAACTTTGACTGC
B28: NRC3_wobSeed1_DR0_T12C_o1 (dsDNA)
DNA 1: GCCAAACTAGGCCAAGGTCAAAGTCGGTTTGTGCCAGCGATTGACAGCGTAGAATGAAGG
DNA 2: CCTTCATTCTACGCTGTCAATCGCTGGCACAAACCGACTTTGACCTTGGCCTAGTTTGGC
B29: NRC3_wobSeed4_DR0_A14G_o1 (dsDNA)
DNA 1: GCCCTACTGGGCCGAGGTCATTGATCAGTCAAAGCAGCGATTGACAGCGTAGAATGAAGG
DNA 2: CCTTCATTCTACGCTGTCAATCGCTGCTTTGACTGATCAATGACCTCGGCCCAGTAGGGC
B30: NRC3_wobSeed74_DR3_A18G_o1 (dsDNA)
DNA 1: GCTCTAGTTGGTCACGGGGGTCACACACGACGGGTAGCGATTGACAGCGTAGAATGAAGG
DNA 2: CCTTCATTCTACGCTGTCAATCGCTACCCGTCGTGTGTGACCCCCGTGACCAACTAGAGC
B31: NRC3_wobSeed74_DR3_G10C_o1 (dsDNA)
DNA 1: B30 DNA 1 with G10C, G18A
DNA 2: B30 DNA 2 with C43T, C51G
B32: NRC3_wobSeed74_DR3_G7C_o1 (dsDNA)
DNA 1: B30 DNA 1 with G7C, G18A
DNA 2: B30 DNA 2 with C43T, C54G
B33: NRC3_wobSeed18_DR0_o1 (dsDNA)
DNA 1: GCGATACAGGGTCAAGGCCAGAGTACGCGTATTGATGCGATTGACAGCGTAGAATGAAGG
DNA 2: CCTTCATTCTACGCTGTCAATCGCATCAATACGCGTACTCTGGCCTTGACCCTGTATCGC

What follows are binders tested against LXRb:RXRa (Homo sapiens, UniProt P55055;P19793 full;full) (assay: no ligand; PBM; 270 nM : 90 nM RXRa; PBS pH 7.4, 2% milk, 0.02% Triton X-100, 1 mM DTT, BSA, 0.4 mg/ml salmon testes DNA). Details: tags: His kept;His cleaved; copies: 1;1; label: surface-attached array probe.
Procedure, shortened: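 Random background probes are the reference for binding z-scores. These scores derive from regression-normalized fluorescence on custom Agilent 4×180K protein-binding microarrays incubated 1 h with ligand-free nuclear receptor dimers. Binding was detected with antibodies against each partner (one per run).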

Sequence of LXRb:RXRa (P55055 whole entry, chain 1 of 2): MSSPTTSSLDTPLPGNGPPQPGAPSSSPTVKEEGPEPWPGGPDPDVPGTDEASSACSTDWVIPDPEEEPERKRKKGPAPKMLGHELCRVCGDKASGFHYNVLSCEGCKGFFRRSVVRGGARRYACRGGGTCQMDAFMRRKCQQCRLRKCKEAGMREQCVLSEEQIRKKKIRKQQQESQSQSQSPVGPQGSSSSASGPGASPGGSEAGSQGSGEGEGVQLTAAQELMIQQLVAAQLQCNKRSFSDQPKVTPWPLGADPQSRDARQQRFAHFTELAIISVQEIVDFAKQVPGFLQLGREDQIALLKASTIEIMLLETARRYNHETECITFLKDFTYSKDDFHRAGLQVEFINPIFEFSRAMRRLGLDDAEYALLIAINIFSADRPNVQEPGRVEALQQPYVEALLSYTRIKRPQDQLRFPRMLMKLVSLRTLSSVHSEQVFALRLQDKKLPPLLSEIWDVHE
Sequence of LXRb:RXRa (P19793 whole entry, chain 2 of 2): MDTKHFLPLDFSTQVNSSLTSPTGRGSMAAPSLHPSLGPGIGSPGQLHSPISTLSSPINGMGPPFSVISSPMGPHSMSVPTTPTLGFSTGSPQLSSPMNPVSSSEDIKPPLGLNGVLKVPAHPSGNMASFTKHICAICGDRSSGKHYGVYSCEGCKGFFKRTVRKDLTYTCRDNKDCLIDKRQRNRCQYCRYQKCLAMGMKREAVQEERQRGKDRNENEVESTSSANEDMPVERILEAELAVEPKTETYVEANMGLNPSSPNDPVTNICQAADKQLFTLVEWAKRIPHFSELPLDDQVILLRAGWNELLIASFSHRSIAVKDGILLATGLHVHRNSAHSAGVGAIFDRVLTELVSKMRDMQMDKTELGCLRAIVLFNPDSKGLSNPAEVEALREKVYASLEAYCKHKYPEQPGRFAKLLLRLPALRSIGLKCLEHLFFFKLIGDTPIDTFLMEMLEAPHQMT

Binder | binding signal
B1 | 3.81 PBM z-score against 500 random probes
B2 | 3.68 PBM z-score against 500 random probes
B3 | 6.29 PBM z-score against 500 random probes
B4 | 3.86 PBM z-score against 500 random probes
B5 | 6.19 PBM z-score against 500 random probes
B6 | 3.73 PBM z-score against 500 random probes
B7 | 6.37 PBM z-score against 500 random probes
B8 | 6.12 PBM z-score against 500 random probes
B9 | 3.62 PBM z-score against 500 random probes
B10 | 3.5 PBM z-score against 500 random probes
B11 | 3.58 PBM z-score against 500 random probes
B12 | 3.75 PBM z-score against 500 random probes
B13 | 3.54 PBM z-score against 500 random probes
B14 | 6.23 PBM z-score against 500 random probes
B15 | 3.49 PBM z-score against 500 random probes
B16 | 3.9 PBM z-score against 500 random probes
B17 | 3.39 PBM z-score against 500 random probes

Binder | binding signal
B18 | 3.89 PBM z-score against 500 random probes
B19 | 3.78 PBM z-score against 500 random probes
B20 | 6.04 PBM z-score against 500 random probes
B21 | 3.76 PBM z-score against 500 random probes
B22 | 3.43 PBM z-score against 500 random probes
B23 | 3.53 PBM z-score against 500 random probes
B24 | 5.84 PBM z-score against 500 random probes
B25 | 3.47 PBM z-score against 500 random probes
B26 | 6.26 PBM z-score against 500 random probes
B27 | 3.64 PBM z-score against 500 random probes
B28 | 3.41 PBM z-score against 500 random probes
B29 | 3.45 PBM z-score against 500 random probes
B30 | 6.39 PBM z-score against 500 random probes
B31 | 3.52 PBM z-score against 500 random probes
B32 | 3.61 PBM z-score against 500 random probes
B33 | 3.7 PBM z-score against 500 random probes
